Measurements taken from patent US20230235012A1 (ALPINE IMMUNE SCIENCES, published 2023).
Substitutions are numbered along the chain they refer to. Names may count otherwise.

B1: ICOSL ECD N52H/N57Y/Q100R/F172S - G4S - Fc C220S/L234A/L235E/G237A (Fc fusion)
chain: DTQEKEVRAMVGSDVELSCACPEGSRFDLNDVYVYWQTSESKTVVTYHIPQHSSLEYVDSRYRNRALMSPAGMLRGDFSLRLFNVTPQDEQKFHCLVLSRSLGFQEVLSVEVTLHVAANFSVPVVSAPHSPSQDELTFTCTSINGYPRPNVYWINKTDNSLLDQALQNDTVSLNMRGLYDVVSVLRIARTPSVNIGCCIENVLLQQNLTVGSQTGNDIGERDKITENPVSTGEKNAATGGGGSEPKSSDKTHTCPPCPAPEAEGAPSVFLFPPKPKDTLMISRTPEVTCVVVDVSHEDPEVKFNWYVDGVEVHNAKTKPREEQYNSTYRVVSVLTVLHQDWLNGKEYKCKVSNKALPAPIEKTISKAKGQPREPQVYTLPPSREEMTKNQVSLTCLVKGFYPSDIAVEWESNGQPENNYKTTPPVLDSDGSFFLYSKLTVDKSRWQQGNVFSCSVMHEALHNHYTQKSLSLSPGK
B2: ICOSL ECD N52H/N57Y/Q100P - G4S - Fc C220S/L234A/L235E/G237A (Fc fusion)
chain: B1 chain with R100P, S172F
B3: ICOSL ECD Truncation #7 with N52H/N57Y/Q100R/F172S, Fc fusion (Fc fusion)
chain: DTQEKEVRAMVGSDVELSCACPEGSRFDLNDVYVYWQTSESKTVVTYHIPQHSSLEYVDSRYRNRALMSPAGMLRGDFSLRLFNVTPQDEQKFHCLVLSRSLGFQEVLSVEVTLHVAANFSVPVVSAPHSPSQDELTFTCTSINGYPRPNVYWINKTDNSLLDQALQNDTVSLNMRGLYDVVSVLRIARTPSVNIGCCIENGGGGSGGGGSEPKSSDKTHTCPPCPAPEAEGAPSVFLFPPKPKDTLMISRTPEVTCVVVDVSHEDPEVKFNWYVDGVEVHNAKTKPREEQYNSTYRVVSVLTVLHQDWLNGKEYKCKVSNKALPAPIEKTISKAKGQPREPQVYTLPPSREEMTKNQVSLTCLVKGFYPSDIAVEWESNGQPENNYKTTPPVLDSDGSFFLYSKLTVDKSRWQQGNVFSCSVMHEALHNHYTQKSLSLSPG
B4: ICOSL IgV with N52H/N57Y/Q100R, Fc fusion (Fc fusion)
chain: DTQEKEVRAMVGSDVELSCACPEGSRFDLNDVYVYWQTSESKTVVTYHIPQHSSLEYVDSRYRNRALMSPAGMLRGDFSLRLFNVTPQDEQKFHCLVLSRSLGFQEVLSVEVTLHVAANFSVGGGGSGGGGSEPKSSDKTHTCPPCPAPEAEGAPSVFLFPPKPKDTLMISRTPEVTCVVVDVSHEDPEVKFNWYVDGVEVHNAKTKPREEQYNSTYRVVSVLTVLHQDWLNGKEYKCKVSNKALPAPIEKTISKAKGQPREPQVYTLPPSREEMTKNQVSLTCLVKGFYPSDIAVEWESNGQPENNYKTTPPVLDSDGSFFLYSKLTVDKSRWQQGNVFSCSVMHEALHNHYTQKSLSLSPG
notes: also called ICOSCL IgV with N52H/N57Y/Q100R
B5: ICOSL ECD Truncation #4 with N52H/N57Y/Q100R/F172S, Fc fusion (Fc fusion)
chain: DTQEKEVRAMVGSDVELSCACPEGSRFDLNDVYVYWQTSESKTVVTYHIPQHSSLEYVDSRYRNRALMSPAGMLRGDFSLRLFNVTPQDEQKFHCLVLSRSLGFQEVLSVEVTLHVAANFSVPVVSAPHSPSQDELTFTCTSINGYPRPNVYWINKTDNSLLDQALQNDTVSLNMRGLYDVVSVLRIARTPSVNIGCCIENVLLQQNGGGGSGGGGSEPKSSDKTHTCPPCPAPEAEGAPSVFLFPPKPKDTLMISRTPEVTCVVVDVSHEDPEVKFNWYVDGVEVHNAKTKPREEQYNSTYRVVSVLTVLHQDWLNGKEYKCKVSNKALPAPIEKTISKAKGQPREPQVYTLPPSREEMTKNQVSLTCLVKGFYPSDIAVEWESNGQPENNYKTTPPVLDSDGSFFLYSKLTVDKSRWQQGNVFSCSVMHEALHNHYTQKSLSLSPG
B6: ICOSL ECD with N52H/N57Y/Q100R/C198R linked to Fc C220S/L234A/L235E/G237A (Table 30D) (Fc fusion)
chain: DTQEKEVRAMVGSDVELSCACPEGSRFDLNDVYVYWQTSESKTVVTYHIPQHSSLEYVDSRYRNRALMSPAGMLRGDFSLRLFNVTPQDEQKFHCLVLSRSLGFQEVLSVEVTLHVAANFSVPVVSAPHSPSQDELTFTCTSINGYPRPNVYWINKTDNSLLDQALQNDTVFLNMRGLYDVVSVLRIARTPSVNIGCRIENVLLQQNLTVGSQTGNDIGERDKITENPVSTGEKNAATEPKSSDKTHTCPPCPAPEAEGAPSVFLFPPKPKDTLMISRTPEVTCVVVDVSHEDPEVKFNWYVDGVEVHNAKTKPREEQYNSTYRVVSVLTVLHQDWLNGKEYKCKVSNKALPAPIEKTISKAKGQPREPQVYTLPPSREEMTKNQVSLTCLVKGFYPSDIAVEWESNGQPENNYKTTPPVLDSDGSFFLYSKLTVDKSRWQQGNVFSCSVMHEALHNHYTQKSLSLSPGK
B7: ICOSL ECD N52H/N57Y/Q100P - AAA - Fc C220S/L234A/L235E/G237A (Fc fusion)
chain: DTQEKEVRAMVGSDVELSCACPEGSRFDLNDVYVYWQTSESKTVVTYHIPQHSSLEYVDSRYRNRALMSPAGMLRGDFSLRLFNVTPQDEQKFHCLVLSPSLGFQEVLSVEVTLHVAANFSVPVVSAPHSPSQDELTFTCTSINGYPRPNVYWINKTDNSLLDQALQNDTVFLNMRGLYDVVSVLRIARTPSVNIGCCIENVLLQQNLTVGSQTGNDIGERDKITENPVSTGEKNAATAAAEPKSSDKTHTCPPCPAPEAEGAPSVFLFPPKPKDTLMISRTPEVTCVVVDVSHEDPEVKFNWYVDGVEVHNAKTKPREEQYNSTYRVVSVLTVLHQDWLNGKEYKCKVSNKALPAPIEKTISKAKGQPREPQVYTLPPSREEMTKNQVSLTCLVKGFYPSDIAVEWESNGQPENNYKTTPPVLDSDGSFFLYSKLTVDKSRWQQGNVFSCSVMHEALHNHYTQKSLSLSPGK
B8: ICOSL ECD N52H/N57Y/Q100R/F172S - AAA - Fc C220S/L234A/L235E/G237A (Fc fusion)
chain: B7 chain with P100R, F172S
B9: ICOSL ECD N52H/N57Y/Q100R/F172S - AAA - Fc C220S/E233P/L234V/L235A/G236del/S267K (Fc fusion)
chain: DTQEKEVRAMVGSDVELSCACPEGSRFDLNDVYVYWQTSESKTVVTYHIPQHSSLEYVDSRYRNRALMSPAGMLRGDFSLRLFNVTPQDEQKFHCLVLSRSLGFQEVLSVEVTLHVAANFSVPVVSAPHSPSQDELTFTCTSINGYPRPNVYWINKTDNSLLDQALQNDTVSLNMRGLYDVVSVLRIARTPSVNIGCCIENVLLQQNLTVGSQTGNDIGERDKITENPVSTGEKNAATAAAEPKSSDKTHTCPPCPAPPVAGPSVFLFPPKPKDTLMISRTPEVTCVVVDVKHEDPEVKFNWYVDGVEVHNAKTKPREEQYNSTYRVVSVLTVLHQDWLNGKEYKCKVSNKALPAPIEKTISKAKGQPREPQVYTLPPSREEMTKNQVSLTCLVKGFYPSDIAVEWESNGQPENNYKTTPPVLDSDGSFFLYSKLTVDKSRWQQGNVFSCSVMHEALHNHYTQKSLSLSPGK
B10: ICOSL ECD N52H/N57Y/Q100P - AAA - Fc C220S/E233P/L234V/L235A/G236del/S267K (Fc fusion)
chain: B9 chain with R100P, S172F

Columns and labels:
human CD28 [1] = target: T1, human CD28 (human, UniProt P10747 19-220); test: flow cytometry, transfected Expi293 cells
T1 construct: whole, on cells

human ICOS [2] = target: T2, human ICOS (human, UniProt Q9Y6W8 21-199); test: flow cytometry, transfected Expi293 cells
T2 construct: whole, on cells
T2 sequence (looked up): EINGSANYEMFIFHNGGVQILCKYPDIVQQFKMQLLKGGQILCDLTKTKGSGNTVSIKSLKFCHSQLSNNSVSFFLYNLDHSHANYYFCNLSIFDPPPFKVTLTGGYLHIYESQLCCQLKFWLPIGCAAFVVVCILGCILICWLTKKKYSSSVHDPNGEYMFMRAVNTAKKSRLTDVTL

human CTLA-4 [3] = target: T3, human CTLA-4 (human, UniProt P16410 36-223); test: flow cytometry, transfected Expi293 cells
T3 construct: whole, on cells

human CD28 [4] = target: T1, human CD28; test: flow cytometry, transfected cells; protein from CHO
human ICOS [5] = target: T2, human ICOS; test: as above
human CTLA-4 [6] = target: T3, human CTLA-4; test: as above
human CD28 [7] = target: T1, human CD28; test: flow cytometry, transfected cells; protein from 293
human ICOS [8] = target: T2, human ICOS; test: as above
human CTLA-4 [9] = target: T3, human CTLA-4; test: as above
human CD28 [10] = target: T1, human CD28; test: flow cytometry, transfected cells; protein from CHO; remark: listed apart in the source
human ICOS [11] = target: T2, human ICOS; test: as above; remark: listed apart in the source
human CTLA-4 [12] = target: T3, human CTLA-4; test: as above; remark: listed apart in the source

T3 sequence (P16410 36-223): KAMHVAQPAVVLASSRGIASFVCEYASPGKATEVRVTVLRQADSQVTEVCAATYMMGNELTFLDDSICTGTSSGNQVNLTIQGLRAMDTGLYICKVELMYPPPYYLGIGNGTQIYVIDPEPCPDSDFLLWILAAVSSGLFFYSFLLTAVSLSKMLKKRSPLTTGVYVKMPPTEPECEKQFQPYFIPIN

MFI (human CD28 [1]) | MFI ratio to WT (human CD28 [1]) | MFI (human ICOS [2]) | MFI ratio to WT (human ICOS [2]) | MFI (human CTLA-4 [3]) | MFI ratio to WT (human CTLA-4 [3]) | MFI (human CD28 [4]) | MFI ratio to WT (human CD28 [4]) | MFI (human ICOS [5]) | MFI ratio to WT (human ICOS [5]) | MFI (human CTLA-4 [6]) | MFI ratio to WT (human CTLA-4 [6]) | MFI (human CD28 [7]) | MFI ratio to WT (human CD28 [7]) | MFI (human ICOS [8]) | MFI ratio to WT (human ICOS [8]) | MFI (human CTLA-4 [9]) | MFI ratio to WT (human CTLA-4 [9]) | other results | Binder
67600 MFI | 12.9 fold | 107000 MFI | 1.4 fold | 213000 MFI | 22.7 fold |  |  |  |  |  |  |  |  |  |  |  |  |  | B1
69900 MFI | 13.4 fold | 104000 MFI | 1.3 fold | 161000 MFI | 17.1 fold |  |  |  |  |  |  |  |  |  |  |  |  |  | B2
 |  |  |  |  |  | 13000 MFI | 3.7 fold | 8080 MFI | 0.7 fold | 9040 MFI | 0.7 fold | 12000 MFI | 3.4 fold | 7600 MFI | 0.7 fold | 9670 MFI | 0.8 fold |  | B3
 |  |  |  |  |  | 17300 MFI | 4.9 fold | 8670 MFI | 0.7 fold | 9040 MFI | 0.7 fold | 16600 MFI | 4.7 fold | 9380 MFI | 0.8 fold | 9670 MFI | 0.8 fold | MFI (human CD28 [10]): 84600 MFI; MFI ratio to WT (human CD28 [10]): 49 fold; MFI (human ICOS [11]): 118000 MFI; MFI ratio to WT (human ICOS [11]): 1.2 fold; MFI (human CTLA-4 [12]): 205000 MFI; MFI ratio to WT (human CTLA-4 [12]): 27 fold | B4
 |  |  |  |  |  | 12700 MFI | 3.6 fold | 7610 MFI | 0.7 fold | 9000 MFI | 0.7 fold | 14700 MFI | 4.1 fold | 6890 MFI | 0.6 fold | 8840 MFI | 0.7 fold | MFI (human CD28 [10]): 68600 MFI; MFI ratio to WT (human CD28 [10]): 39.7 fold; MFI (human ICOS [11]): 133000 MFI; MFI ratio to WT (human ICOS [11]): 1.3 fold; MFI (human CTLA-4 [12]): 377000 MFI; MFI ratio to WT (human CTLA-4 [12]): 49.8 fold | B5
 |  |  |  |  |  | 12900 MFI |  | 7700 MFI |  | 8750 MFI |  | 13700 MFI |  | 16700 MFI |  | 8720 MFI |  |  | B6
68700 MFI | 13.1 fold | 97100 MFI | 1.2 fold | 171000 MFI | 18.2 fold |  |  |  |  |  |  |  |  |  |  |  |  |  | B7
65500 MFI | 12.5 fold | 105000 MFI | 1.3 fold | 194000 MFI | 20.6 fold |  |  |  |  |  |  |  |  |  |  |  |  |  | B8
57300 MFI | 10.9 fold | 104000 MFI | 1.3 fold | 193000 MFI | 20.5 fold |  |  |  |  |  |  |  |  |  |  |  |  |  | B9
69600 MFI | 13.3 fold | 103000 MFI | 1.3 fold | 315000 MFI | 33.5 fold |  |  |  |  |  |  |  |  |  |  |  |  |  | B10
